T1: full-length human SIRPγ EN→DD on Expi-CHO cells (human, UniProt Q9P1W8 29-387)
T1 construct: the entry already carries the change (PENV to PDDV)
T1 chain: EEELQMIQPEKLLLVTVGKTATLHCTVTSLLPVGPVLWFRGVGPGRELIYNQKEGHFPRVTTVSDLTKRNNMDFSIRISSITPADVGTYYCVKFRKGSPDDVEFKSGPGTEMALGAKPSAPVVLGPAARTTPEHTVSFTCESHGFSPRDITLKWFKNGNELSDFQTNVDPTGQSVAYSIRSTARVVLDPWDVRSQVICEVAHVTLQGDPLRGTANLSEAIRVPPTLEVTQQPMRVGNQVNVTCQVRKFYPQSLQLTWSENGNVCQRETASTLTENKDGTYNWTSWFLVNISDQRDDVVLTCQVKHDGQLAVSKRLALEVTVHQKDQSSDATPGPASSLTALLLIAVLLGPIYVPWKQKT


Assays:
[1] = molecular target: T2, full-length human SIRPαV1 (NP_542970.1) on cells (human, UniProt P78324 31-504); assay: flow cytometry, CHO-K1 cells
T2 construct: one molecule for CHO-K1 and Expi-CHO transfectants (NP_542970.1) and for endogenous V1 on U-937 cells and on CD14+ monocytes of V1/V1 donors; also called CHO-hSIRPαV1; αV1 WT
Method: (§1) Antibody binding to cells expressing SIRPα is evaluated by flow cytometry. CHO-K1 parental cells (negative control), CHO-K1 cells expressing full-length human SIRPαV1 (NP_542970.1) or CHO-K1 cells expressing full-length human SIRPαV2 (CAA71403.1) are blocked with donkey IgG and incubated on ice with increasing concentrations of antibodies for 60 minutes, washed and stained with AF647-conjugated donkey F(ab′)₂ anti-human IgG secondary reagent. Cells are washed, fixed, and analyzed by flow cytometry. Median fluorescent intensity is determined and used as a measure of antibody binding.

[2] = molecular target: T3, full-length human SIRPαV2 (CAA71403.1) on cells (human, UniProt P78324 31-504); assay: flow cytometry, CHO-K1 cells
T3 construct: one molecule for CHO-K1 and Expi-CHO transfectants (CAA71403.1) and for endogenous V2 on THP-1 cells and on CD14+ monocytes of V2/V2 donors; also called CHO-hSIRPαV2; αV2 WT
Method: as §1

[3] = molecular target: T2, full-length human SIRPαV1 (NP_542970.1) …; assay: flow cytometry, competition with CD47 tetramer, CHO-K1 cells
Method: (§2) Cells are washed, fixed, and analyzed by flow cytometry. Median fluorescent intensity is determined and used as a measure of CD47 binding.

[4] = molecular target: T3, full-length human SIRPαV2 (CAA71403.1) …; assay: as above
Method: as §2

[5] = molecular target: T3, full-length human SIRPαV2 (CAA71403.1) …; assay: flow cytometry, THP-1 cells (endogenous V2)
Method: (§3) Antibody binding to human monocytic cell lines homozygous for the V1-allele (U-937) or the V2-allele (THP-1) of SIRPα is assessed. U-937 or THP-1 cells are blocked with donkey IgG and incubated on ice with increasing concentrations of antibodies for 60 minutes, washed and stained with AF647-conjugated donkey F(ab′)₂ anti-human IgG secondary reagent. Cells are washed, fixed, and analyzed by flow cytometry. Median fluorescent intensity is determined and used as a measure of antibody binding.

[6] = molecular target: T1, full-length human SIRPγ EN→DD on …; assay: flow cytometry, Expi-CHO cells
Method: (§4) Expi-CHO parental cells are transduced with lentiviruses containing either full-length wild-type human SIRPγ (NP_542970.1) or full-length human SIRPγ with amino acid point mutations (Table 64) and sorted to achieve matching expression levels. These cells are blocked with donkey IgG and incubated on ice with increasing concentrations of antibodies for 60 minutes, washed and stained with AF647-conjugated donkey F(ab′)₂ anti-human IgG antibodies. Stained cells are washed, fixed, and analyzed by flow cytometry. Median fluorescent intensity is determined and used as a measure of antibody binding.

[7] = molecular target: T4, full-length human SIRPγ N→D on Expi-CHO cells (human, UniProt Q9P1W8 29-387); assay: flow cytometry, Expi-CHO cells
T4 construct: the entry already carries the change (PENV to PEDV)
Method: as §4

[8] = molecular target: T5, full-length human SIRPαV1 D→N on Expi-CHO cells (human, UniProt P78324 31-504); assay: flow cytometry, Expi-CHO cells
T5 construct: the entry already carries the change (PDDV to PDNV)
Method: as §4, with “wild-type human SIRPαV1 allele (NP_542970.1) or” for “wild-type human SIRPγ (NP_542970.1) or”, “full-length human SIRPαV1 with amino” for “full-length human SIRPγ with amino”, “mutations (Table 56) and sorted” for “mutations (Table 64) and sorted”

[9] = molecular target: T6, full-length human SIRPαV1 DD→EN on Expi-CHO cells (human, UniProt P78324 31-504); assay: flow cytometry, Expi-CHO cells
T6 construct: the entry already carries the change (PDDV to PENV)
Method: as §4, with “wild-type human SIRPαV1 allele (NP_542970.1) or” for “wild-type human SIRPγ (NP_542970.1) or”, “full-length human SIRPαV1 with amino” for “full-length human SIRPγ with amino”, “mutations (Table 56) and sorted” for “mutations (Table 64) and sorted”

[10] = molecular target: T2, full-length human SIRPαV1 (NP_542970.1) …; assay: flow cytometry, U-937 cells (endogenous V1)
Method: as §3

[11] = molecular target: T7, full-length human SIRPβL (NP_001129316.1) on cells (human, UniProt Q5TFQ8 30-398); assay: flow cytometry, Expi-CHO cells
T7 construct: one molecule for U937 SIRPα-KO transfectants (NP_001129316.1) and Expi-CHO transfectants (Q5TFQ8); also called SIRPβ1v3; βL WT
Method: Expi-CHO parental cells are transduced with lentiviruses containing either full-length wild-type human SIRPβL (Q5TFQ8) or full-length human SIRPβL with a single amino acid point mutation (Table 62) and sorted to achieve matching expression levels. These cells are blocked with donkey IgG and incubated on ice with increasing concentrations of antibodies for 60 minutes, washed and stained with AF647-conjugated donkey F(ab′)₂ anti-human IgG antibodies. Stained cells are washed, fixed, and analyzed by flow cytometry. Median fluorescent intensity is determined and used as a measure of antibody binding.
A single amino acid substitution (H→D) introduced within the loop region maintained, strengthened, or facilitated antibody binding to these cells (FIG. 34B, Table 63).

EC50 [1] [pM] | EC50 [2] [pM] | IC50 [3] [pM] | IC50 [4] [pM] | EC50 [5] [pM] | EC50 [6] [pM] | EC50 [7] [pM] | EC50 [8] [pM] | EC50 [9] [pM] | EC50 [10] [pM] | EC50 [11] [pM] | Binder
700 | 500 | 600 | 300 | 300 | 300 | 300 | 9600 | 6600 | 500 | – | Antibody D (antibody, human IgG1, kappa, L234A L235A, V domains shown) VH: EVQLVESGGGLVQPGGSLRLSCAASGFTFSSFDMHWVRQPTGKGLEWVSTIGIAGDTYFPGSVKGRFTISRENAKNSLYLQMNSLRAGDTAVYYCARGGNWDDALDIWGQGTMVTVSS VL: DIQMTQSPSSLSASVGDRVTITCRASQDINNYLAWFQQKPGKAPKSLIYTASSLQSGVPSKFSGSGSGTDFTLTISSLQPEDFATYYCQQYNTYPYTFGQGTKLEIKR
– | – | – | – | – | 600 | 400 | – | – | – | – | Antibody A (antibody, human IgG1, kappa, L234A L235A) heavy: not shown light: DIQMTQSPSSLSASVGDRVTITCRASQDINNYLAWFQQKPGKAPKSLIYTASSLHSGVPSKFSGSGSGTDFTLTISSLQPEDFATYYCQQYVSYPYTFGQGTKLEIKRTVAAPSVFIFPPSDEQLKSGTASVVCLLNNFYPREAKVQWKVDNALQSGNSQESVTEQDSKDSTYSLSSTLTLSKADYEKHKVYACEVTHQGLSSPVTKSFNRGEC
1000 | 500 | 700 | 300 | 300 | – | – | 2700 | 1100 | 600 | – | Antibody C (antibody, human IgG1, kappa, L234A L235A, V domains shown) VH: EVQLVESGGGLVQPGGSLRLSCAASGFTFSSYDMHWVRQATGKGLEWVSVIGIAGDTYYPGSVKGRFTISRENAKNSLYLQMNSLRVGDTAVYYCARGGSWDDAFDIWGQGTMVTVSS VL: DIQMTQSPSSLSASIGDKVTITCRASQDINNYLAWFQQKPGKAPKSLIYTASSLQSGVPSKFSGSGSGTDFTLTISSLQPEDFATYYCQQYVSYPYTFGQGTKLEIKR
– | – | – | – | – | 700 | 500 | – | – | – | – | Antibody A10 (antibody, human IgG1, kappa, L234A L235A) heavy: not shown light: DIQMTQSPSSLSASVGDRVTITCRASQDINNYLAWFQQKPGKAPKSLIYTASSLHSGVPSKFSGSGSGTDFTLTISSLQPEDFATYYCQQYVSYPYTFGQGTKLEIKRTVAAPSVFIFPPSDEQLKSGTASVVCLLNNFYPREAKVQWKVDNALQSGNSQESVTEQDSKDSTYSLSSTLTLSKADYEKHKVYACEVTHQGLSSPVTKSFNRGEC
12000 | 14200 | 5600 | 6000 | 22300 | 5300 | 4800 | – | – | 21100 | – | Antibody B (antibody, human IgG1, kappa, L234A L235A, V domains shown) VH: QVQLVQSGAEVKKPGASVKVSCKASGYTFTGNYMHWVRQAPGQGLEWMGWINPNSGGTNYAQKFQGRVTMTRDTSISTAYMELSRLRSDDTAVYYCVSGSGWYENYYYYGMDVWGQGTTVTVSS VL: DIQMTQSPSSVSASVGDRVTITCRASQGISSWLAWYQQKPGKAPKLLIYAESSLQSGVPSRFSGSGSGTDFTLTISSLQPEDFATYYCQQANSFPLTFGGGTKVEIKR
2000 | 900 | 700 | – | 400 | – | – | 400 | 400 | 500 | 1000 | Antibody E (antibody, human IgG1, kappa, L234A L235A) heavy: not shown light: DIVMTQSPLSLPVTPGEPASISCKSSQSLLYSNGYNYLDWYLQRPGQSPQLLIYLGSNRASGVPDRFSGSGSGTDFTLKISRVEAEDVGVFYCMQALQTPLTFGGGTKVEIKRTVAAPSVFIFPPSDEQLKSGTASVVCLLNNFYPREAKVQWKVDNALQSGNSQESVTEQDSKDSTYSLSSTLTLSKADYEKHKVYACEVTHQGLSSPVTKSFNRGEC
– | – | – | – | – | – | – | 800 | 600 | – | 1200 | Antibody E22 (antibody, human IgG1, kappa, L234A L235A, V domains shown) VH: QVQLQESGPGLVKPSETLSLTCTVSGGSIRDYYWSWIRQPPGKGLEWIGFIYYNGRTFYQSSLKSRVTISLDTSKNQFSLKMTSVTAADTAVYYCARVRAYSGIGLDGTDVWGQGTTVTVSS VL: DIVMTQSPLSLPVTPGEPASISCRSSQSLLYSTGYTYLDWYLQRPGQSPQLLIYGGSSRASGVPDRFSGSGSGTDFTLKISRVEAEDVGVFYCGQALQTPLTFGQGTKVEIKR
1000 | 500 | 900 | 600 | 200 | 300 | 300 | 200 | 200 | 500 | 1000 | Anti-SIRPα antibody KWAR23 (antibody, V domains shown) VH: EVQLQQSGAELVKPGASVKLSCTASGFNIKDYYIHWVQQRTEQGLEWIGRIDPEDGETKYAPKFQDKATITADTSSNTAYLHLSSLTSEDTAVYYCARWGAYWGQGTLVTVSS VL: QIVLTQSPAIMSASPGEKVTLTCSASSSVSSSYLYWYQQKPGSSPKLWIYSTSNLASGVPARFSGSGSGTSYSLTISSMEAEDAASYFCHQWSSYPRTFGAGTKLELK

Source: patent US20230012273A1 (Boehringer Ingelheim, published 2023)
